In patent JP2014141434A (dated 2014):

Tests used:
[1] = target: T1, 全長ヒトROBO4 (pCI−hROBO4導入細胞) (human, UniProt Q8WZ75 28-1007); assay: flow cytometry, hybridoma supernatant on hROBO4-transfected HEK293T cells against mock cells
T1 construct: Expressed from pCI-hROBO4 on HEK293 / HEK293T cells; also called human ROBO4
T1 sequence: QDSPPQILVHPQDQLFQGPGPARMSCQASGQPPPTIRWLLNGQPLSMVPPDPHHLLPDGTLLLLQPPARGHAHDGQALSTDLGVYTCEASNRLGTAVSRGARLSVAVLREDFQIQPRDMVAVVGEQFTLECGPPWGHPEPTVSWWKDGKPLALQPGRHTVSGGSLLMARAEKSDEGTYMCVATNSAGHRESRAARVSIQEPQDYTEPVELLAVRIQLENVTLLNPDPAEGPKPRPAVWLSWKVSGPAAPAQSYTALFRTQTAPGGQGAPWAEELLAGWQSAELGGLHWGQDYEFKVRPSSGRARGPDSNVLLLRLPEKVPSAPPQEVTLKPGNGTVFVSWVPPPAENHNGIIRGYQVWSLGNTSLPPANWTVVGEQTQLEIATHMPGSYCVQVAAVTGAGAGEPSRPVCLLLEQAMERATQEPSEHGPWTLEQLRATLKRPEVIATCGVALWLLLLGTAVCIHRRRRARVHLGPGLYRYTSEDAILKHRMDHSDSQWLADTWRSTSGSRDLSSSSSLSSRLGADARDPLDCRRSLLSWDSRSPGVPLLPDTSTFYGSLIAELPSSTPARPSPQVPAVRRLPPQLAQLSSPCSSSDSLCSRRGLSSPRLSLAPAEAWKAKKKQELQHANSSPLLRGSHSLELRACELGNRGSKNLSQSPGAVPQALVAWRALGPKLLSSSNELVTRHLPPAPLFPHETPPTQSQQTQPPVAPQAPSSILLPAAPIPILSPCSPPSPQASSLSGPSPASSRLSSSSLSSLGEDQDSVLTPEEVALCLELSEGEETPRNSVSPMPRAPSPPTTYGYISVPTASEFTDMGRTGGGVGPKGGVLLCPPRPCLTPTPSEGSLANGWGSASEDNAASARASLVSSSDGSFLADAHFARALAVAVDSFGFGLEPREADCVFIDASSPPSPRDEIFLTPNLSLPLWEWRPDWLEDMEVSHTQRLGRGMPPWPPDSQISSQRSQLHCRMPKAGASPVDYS

[2] = target: T2, N末端FLAG−tag付加型全長ヒトROBO4 hROBO4−28 (human, UniProt Q8WZ75 28-1007); assay: flow cytometry, transfected HEK293 cells, 10 μg/mL
T2 construct: On HEK293 cells; also called pCI−FLAG−hROBO4−28
T2 sequence: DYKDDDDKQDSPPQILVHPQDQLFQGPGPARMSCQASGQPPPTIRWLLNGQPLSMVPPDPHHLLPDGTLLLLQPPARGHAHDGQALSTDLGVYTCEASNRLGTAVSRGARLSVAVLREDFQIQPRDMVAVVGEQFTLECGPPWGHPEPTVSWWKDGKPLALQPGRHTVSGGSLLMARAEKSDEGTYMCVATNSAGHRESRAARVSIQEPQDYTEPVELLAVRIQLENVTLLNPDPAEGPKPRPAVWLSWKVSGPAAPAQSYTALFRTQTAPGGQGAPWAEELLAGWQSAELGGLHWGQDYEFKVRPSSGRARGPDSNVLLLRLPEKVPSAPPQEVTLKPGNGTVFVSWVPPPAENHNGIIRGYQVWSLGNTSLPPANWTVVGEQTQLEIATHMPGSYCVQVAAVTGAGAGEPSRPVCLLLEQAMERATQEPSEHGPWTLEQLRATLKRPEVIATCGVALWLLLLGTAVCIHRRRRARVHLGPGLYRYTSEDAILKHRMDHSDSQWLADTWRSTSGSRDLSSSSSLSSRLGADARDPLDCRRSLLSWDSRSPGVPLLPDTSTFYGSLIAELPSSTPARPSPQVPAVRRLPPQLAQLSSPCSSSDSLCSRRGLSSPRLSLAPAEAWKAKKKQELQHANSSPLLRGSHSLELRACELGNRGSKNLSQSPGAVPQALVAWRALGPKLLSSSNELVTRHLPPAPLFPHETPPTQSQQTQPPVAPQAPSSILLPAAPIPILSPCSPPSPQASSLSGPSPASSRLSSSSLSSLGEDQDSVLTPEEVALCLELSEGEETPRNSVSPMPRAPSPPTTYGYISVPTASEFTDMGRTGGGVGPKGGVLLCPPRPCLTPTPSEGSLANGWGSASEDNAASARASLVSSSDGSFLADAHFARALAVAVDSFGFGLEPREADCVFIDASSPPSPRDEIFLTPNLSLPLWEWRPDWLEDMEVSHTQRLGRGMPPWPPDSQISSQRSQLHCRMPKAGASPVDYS

[3] = target: T3, N末端FLAG−tag付加型ヒトROBO4細胞外領域ドメイン欠損体 hROBO4−132 (human, UniProt Q8WZ75 132-1007); assay: flow cytometry, transfected HEK293 cells, 10 μg/mL
T3 construct: On HEK293 cells; also called pCI−FLAG−hROBO4−132; pCI−hROBO4−132
T3 sequence: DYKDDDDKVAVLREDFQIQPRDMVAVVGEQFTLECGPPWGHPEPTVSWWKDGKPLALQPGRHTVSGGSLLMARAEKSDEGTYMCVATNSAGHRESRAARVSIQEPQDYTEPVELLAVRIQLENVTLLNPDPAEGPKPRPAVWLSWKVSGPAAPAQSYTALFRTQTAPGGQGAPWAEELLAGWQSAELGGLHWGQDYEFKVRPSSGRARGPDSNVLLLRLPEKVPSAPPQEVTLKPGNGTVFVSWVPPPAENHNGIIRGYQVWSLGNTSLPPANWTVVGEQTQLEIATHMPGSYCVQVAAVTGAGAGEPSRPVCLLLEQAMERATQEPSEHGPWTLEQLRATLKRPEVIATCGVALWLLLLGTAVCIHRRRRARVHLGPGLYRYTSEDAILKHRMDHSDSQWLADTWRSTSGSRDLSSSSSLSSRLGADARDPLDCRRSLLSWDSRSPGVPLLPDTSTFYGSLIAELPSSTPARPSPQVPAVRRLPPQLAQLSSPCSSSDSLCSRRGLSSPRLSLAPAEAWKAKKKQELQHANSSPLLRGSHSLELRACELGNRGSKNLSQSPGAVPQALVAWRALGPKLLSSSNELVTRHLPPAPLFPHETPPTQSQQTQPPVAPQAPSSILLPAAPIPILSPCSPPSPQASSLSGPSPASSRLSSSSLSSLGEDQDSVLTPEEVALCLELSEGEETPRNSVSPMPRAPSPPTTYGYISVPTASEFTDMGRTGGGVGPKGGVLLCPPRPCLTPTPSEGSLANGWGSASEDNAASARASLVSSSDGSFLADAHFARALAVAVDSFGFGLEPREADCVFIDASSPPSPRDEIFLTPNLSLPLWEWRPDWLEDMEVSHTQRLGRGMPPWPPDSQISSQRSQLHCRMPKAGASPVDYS

Measured: binding result

B1: 抗ROBO4マウスモノクローナル抗体 MAb1 (antibody, V domains shown)
VH: EVQLVESGGGLVKPGGSLKLSCAASGFTFSTYAMSWVRQTPEKRLEWVATISNGGTYTYYPDSVKGRFTISRDNAENTLYLQMSSLRSEDTAMYFCARLIYYDYLDYWGHGTTLTVSS
VL: DAVMTQTPLSLPVSLGDQASISCRSSQSLENSNGNTYLNWYFQKPGQSPQLLIYRVSNRFSGVLDRFSGSGSGTDFTLKISRVEAEDFGVYFCLQVTHVPWTFGGGTKLEIKR
notes: Mouse IgG1 (gamma 1) / kappa from a hybridoma; The constant regions are not in the listing; also called MAb1
binds: all assays above
